# Measured values published in publication PMC5131957, “p53 Specifically Binds Triplex DNA In Vitro and in Cells”.
# B1: T.A.T triplex, biotinylated (structured_DNA)
# DNA 1: TTTTTTTTTTTTTTTTTTTTTTTTTTTTTTTTTTTTTTTTTTTTTTTTTT
# DNA 2: AAAAAAAAAAAAAAAAAAAAAAAAAAAAAAAAAAAAAAAAAAAAAAAAAA
# DNA 3: B1 DNA 1
# B2: CON, biotinylated (dsDNA)
# DNA 1: GACGGTATCGATAAGAGACATGCCTAGACATGCCTCTTGATATCGAATTC
# DNA 2: GAATTCGATATCAAGAGGCATGTCTAGGCATGTCTCTTATCGATACCGTC
# What was measured:
# [1] = target: p53CT (C-terminal segment: tetramerization domain + CTDBD) (human, UniProt P04637 320-393); experiment: ELISA; 2 mM Mg2+; EMSA: 5 mM Tris-HCl pH 8, 1 mM MgCl2, 0.01% Triton X-100, 50 mM KCl, on ice or 25 C, 30 min, pBSK/SmaI competitor 5-50 ng; ELISA: 1x PBS, 2 mM MgCl2, temperature not stated; settings: protein: recombinant; tags: GST (with or without); chain copies: 4; label: 3' biotin on (dA)50; intermolecular triplex, 2 x (dT)50 + 1 x (dA)50
# p53CT (C-terminal segment: tetramerization domain + CTDBD), sequence (P04637 320-393): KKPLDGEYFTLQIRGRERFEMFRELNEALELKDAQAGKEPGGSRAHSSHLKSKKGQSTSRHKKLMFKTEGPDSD
# p53T (last 30 aa, CTDBD) = p53T (last 30 aa, CTDBD) (human, UniProt P04637 363-393); experiment: as above; settings: protein: recombinant; tags: GST (with or without); label: 3' biotin on (dA)50; intermolecular triplex, 2 x (dT)50 + 1 x (dA)50
# p53T (last 30 aa, CTDBD), sequence (P04637 363-393): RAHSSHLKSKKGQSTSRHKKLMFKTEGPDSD
# p53 full length = p53 full length (human, UniProt P04637 1-393); experiment: ELISA; DO1 antibody; 2 mM Mg2+; EMSA: 5 mM Tris-HCl pH 8, 1 mM MgCl2, 0.01% Triton X-100, 50 mM KCl, on ice or 25 C, 30 min, pBSK/SmaI competitor 5-50 ng; ELISA: 1x PBS, 2 mM MgCl2, temperature not stated; settings: protein: recombinant, chain copies: 4
# p53 full length, sequence (P04637 whole entry): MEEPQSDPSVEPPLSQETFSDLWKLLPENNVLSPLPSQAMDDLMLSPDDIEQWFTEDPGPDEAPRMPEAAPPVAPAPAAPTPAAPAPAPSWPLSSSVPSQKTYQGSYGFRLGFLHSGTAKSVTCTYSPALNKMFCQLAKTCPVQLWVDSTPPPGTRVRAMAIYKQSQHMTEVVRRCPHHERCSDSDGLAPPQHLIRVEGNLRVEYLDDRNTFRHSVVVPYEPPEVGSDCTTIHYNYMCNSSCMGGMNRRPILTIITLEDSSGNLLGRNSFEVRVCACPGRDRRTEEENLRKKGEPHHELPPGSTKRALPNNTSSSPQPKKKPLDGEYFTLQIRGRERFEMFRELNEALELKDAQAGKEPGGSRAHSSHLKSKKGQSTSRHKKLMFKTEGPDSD
Binder,Kd [1],"Kd (p53T (last 30 aa, CTDBD))","Kd (p53 full length; label: 3' biotin on (dA)50, intermolecular triplex, 2 x (dT)50 + 1 x (dA)50)","Kd (p53 full length; label: 3' biotin on strand 1, blunt)"
B1,1.88 ± 0.3 nM,10.4 ± 0.84 nM,0.75 ± 0.07 nM,
B2,,,,0.58 ± 0.05 nM
